Reference: patent publication US10830762 (dated 2020)
Where a chain is given by its changes, count along the chain named. Names may count otherwise. Each block holds one binder with its values, some of them ahead of it.

Assays:
[1] = molecular target: T1, DDB1 in DF15R cell extracts (UniProt Q16531 2-1140); test: immunoprecipitation and Western blot from DF15R cell extracts (FIG. 24C)
T1 construct: Co-immunoprecipitated with FLAG-tagged CRBN proteins from cell extracts

full-length human GSPT1 = molecular target: T2, full-length human GSPT1 (human, UniProt P15170 1-499); test: CRBN immunoprecipitation in the presence of vehicle or Compound C (FIG. 34A)
T2 construct: mature; limits unknown; also called hGSPT1

human GSPT1 G575N = molecular target: T3, human GSPT1 G575N (human, UniProt P15170-3 139-637, limits assumed); test: Compound C-induced in vitro binding of GSPT1 to CRBN (FIG. 31C)
T3 construct: also called G575N mutation in GSPT1
T3 sequence (P15170 whole entry G437N): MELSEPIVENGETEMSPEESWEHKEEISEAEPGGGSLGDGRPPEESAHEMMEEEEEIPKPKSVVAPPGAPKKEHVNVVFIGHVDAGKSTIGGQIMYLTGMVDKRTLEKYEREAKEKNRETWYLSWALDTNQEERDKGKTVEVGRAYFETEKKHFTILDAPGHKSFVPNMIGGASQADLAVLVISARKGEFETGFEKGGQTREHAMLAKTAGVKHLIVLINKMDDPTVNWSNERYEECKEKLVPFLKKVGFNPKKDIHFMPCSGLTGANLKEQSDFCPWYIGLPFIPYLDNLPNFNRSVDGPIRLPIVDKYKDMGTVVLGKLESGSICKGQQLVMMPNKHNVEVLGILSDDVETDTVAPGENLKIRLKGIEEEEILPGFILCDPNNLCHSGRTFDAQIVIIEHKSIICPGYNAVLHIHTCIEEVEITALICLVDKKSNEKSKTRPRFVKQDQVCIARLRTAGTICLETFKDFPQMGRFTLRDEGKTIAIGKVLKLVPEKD

T2 sequence (P15170 other isoform, or with tags, fused parts or gaps limits assumed): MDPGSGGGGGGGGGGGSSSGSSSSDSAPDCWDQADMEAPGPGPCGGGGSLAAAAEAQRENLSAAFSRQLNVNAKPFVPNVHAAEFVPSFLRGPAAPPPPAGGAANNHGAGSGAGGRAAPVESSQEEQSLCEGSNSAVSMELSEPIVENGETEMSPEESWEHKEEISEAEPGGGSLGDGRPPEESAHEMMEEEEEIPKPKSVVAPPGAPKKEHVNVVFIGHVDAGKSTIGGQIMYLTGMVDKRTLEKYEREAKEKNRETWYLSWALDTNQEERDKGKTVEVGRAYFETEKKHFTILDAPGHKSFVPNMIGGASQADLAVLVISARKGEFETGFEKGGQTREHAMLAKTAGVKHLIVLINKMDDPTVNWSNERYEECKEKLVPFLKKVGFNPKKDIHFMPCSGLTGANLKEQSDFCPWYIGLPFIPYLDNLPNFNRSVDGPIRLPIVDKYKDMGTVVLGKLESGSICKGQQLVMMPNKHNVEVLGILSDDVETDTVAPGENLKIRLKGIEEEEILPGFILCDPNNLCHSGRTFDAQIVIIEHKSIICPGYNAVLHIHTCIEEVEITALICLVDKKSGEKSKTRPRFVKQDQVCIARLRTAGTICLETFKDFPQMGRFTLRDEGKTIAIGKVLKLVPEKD
T1 sequence (Q16531 2-1140 limits assumed): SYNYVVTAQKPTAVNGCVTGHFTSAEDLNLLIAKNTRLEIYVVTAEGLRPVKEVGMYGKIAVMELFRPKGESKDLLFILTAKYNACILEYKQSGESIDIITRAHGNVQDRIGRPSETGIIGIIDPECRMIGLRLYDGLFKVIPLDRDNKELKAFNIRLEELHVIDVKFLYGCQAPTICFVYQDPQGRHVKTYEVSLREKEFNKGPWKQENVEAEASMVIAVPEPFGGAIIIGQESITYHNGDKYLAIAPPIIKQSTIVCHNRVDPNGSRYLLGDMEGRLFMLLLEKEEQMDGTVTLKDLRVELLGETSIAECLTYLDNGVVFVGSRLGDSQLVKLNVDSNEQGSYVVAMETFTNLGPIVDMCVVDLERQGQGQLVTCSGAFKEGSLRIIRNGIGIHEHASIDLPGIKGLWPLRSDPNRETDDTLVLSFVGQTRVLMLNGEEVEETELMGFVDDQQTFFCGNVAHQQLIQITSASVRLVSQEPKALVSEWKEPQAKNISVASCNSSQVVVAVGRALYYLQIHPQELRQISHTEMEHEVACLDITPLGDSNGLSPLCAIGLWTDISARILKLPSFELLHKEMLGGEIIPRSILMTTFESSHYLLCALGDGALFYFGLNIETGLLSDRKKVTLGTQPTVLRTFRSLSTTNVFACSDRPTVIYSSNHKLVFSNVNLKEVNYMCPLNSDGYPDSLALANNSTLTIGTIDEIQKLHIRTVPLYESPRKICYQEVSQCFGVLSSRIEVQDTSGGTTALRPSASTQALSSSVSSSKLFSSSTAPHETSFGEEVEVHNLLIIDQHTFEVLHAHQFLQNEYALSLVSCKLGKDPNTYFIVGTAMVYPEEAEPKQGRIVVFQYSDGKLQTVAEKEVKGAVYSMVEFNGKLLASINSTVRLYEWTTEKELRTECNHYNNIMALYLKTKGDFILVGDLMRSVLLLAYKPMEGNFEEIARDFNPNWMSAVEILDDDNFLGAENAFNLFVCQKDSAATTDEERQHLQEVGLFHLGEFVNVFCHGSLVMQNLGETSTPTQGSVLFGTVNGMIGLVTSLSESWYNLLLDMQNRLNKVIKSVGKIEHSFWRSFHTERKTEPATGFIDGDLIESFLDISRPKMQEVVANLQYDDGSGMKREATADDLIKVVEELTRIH

binding result [1]: binds
B1: full length CRBN W386A (CRBN^W386A), FLAG-tagged, re-expressed in DF15R cells (other, human, UniProt Q96SW2 1-442, looked up)
chain: MAGEGDQQDAAHNMGNHLPLLPAESEEEDEMEVEDQDSKEAKKPNIINFDTSLPTSHTYLGADMEEFHGRTLHDDDSCQVIPVLPQVMMILIPGQTLPLQLFHPQEVSMVRNLIQKDRTFAVLAYSNVQEREAQFGTTAEIYAYREEQDFGIEIVKVKAIGRQRFKVLELRTQSDGIQQAKVQILPECVLPSTMSAVQLESLNKCQIFPSKPVSREDQCSYKWWQKYQKRKFHCANLTSWPRWLYSLYDAETLMDRIKKQLREWDENLKDDSLPSNPIDFSYRVAACLPIDDVLRIQLLKIGSAIQRLRCELDIMNKCTSLCCKQCQETEITTKNEIFSLSLCGPMAAYVNPHGYVHETLTVYKACNLNLIGRPSTEHSWFPGYAATVAQCKICASHIGWKFTATKKDMSPQKFWGLTRSALLPTIPDTEDEISPDKVILCL
notes: mature; not shown: FLAG tag

binding result (full-length human GSPT1): no binding
B2: human CRBN E377V (other, UniProt Q96SW2 1-442, looked up)
chain: B1 chain with E377V, A386W

binding result (human GSPT1 G575N): no binding
B3: human WT CRBN (other, UniProt Q96SW2 1-442, looked up)
chain: B1 chain with A386W
notes: also called cereblon; hCRBN

binding result (full-length human GSPT1): no binding
B4: human CRBN E377A (other, UniProt Q96SW2 1-442, looked up)
chain: B1 chain with E377A, A386W

binding result [1]: binds
B5: full length CRBN W400A (CRBN^W400A), FLAG-tagged, re-expressed in DF15R cells (other, human, UniProt Q96SW2 1-442, looked up)
chain: B1 chain with A386W, W400A
notes: mature; not shown: FLAG tag

binding result (full-length human GSPT1): no binding
B6: human CRBN H357A (other, UniProt Q96SW2 1-442, looked up)
chain: B1 chain with H357A, A386W
